# Measured values taken from article PMC10425836, “Cryo‐EM structure of antibacterial efflux transporter QacA from Staphylococcus aureus reveals a novel extracellular loop with allosteric role” (The EMBO Journal, 2023).
# B1: ICab B7, purified (VHH)
# VHH: QVQLQESGGGSVQAGGSLRLSCAASGYTNSRKCMGWFRQIPGKEREGVAAIYGFGRGLILYADSVKGRFTISQDNAKNTVYLQMNSLKPEDTAMYYCAADSPGSCLSRSGYNYWGQGTQVTVSS
# notes: single-domain Indian camelid antibody B7 from a camel immunised with QacA; source: E. coli SHuffle T7, purified (Ni-NTA, SEC)
# B2: ICab A4, purified (VHH)
# VHH: QVQLQESGGGSVQTGGSLRLSCAASGYRYSDNCVGWFRQAPGREREAVATYNSGSSTWYADSVKGRFTISQDSAKSTVYLQMNNLKPEDTAMYYCAGRNRLGSYCYMTGDFAYWGQGTQVTVSS
# notes: single-domain Indian camelid antibody A4 from a camel immunised with QacA; source: E. coli SHuffle T7, purified (Ni-NTA, SEC)
# B3: QacA_(D411N)-GFP (natural protein)
# chain: MISFFTKTTDMMTSKKRWTALVVLAVSLFVVTMDMTILIMALPELVRELEPSGTQQLWIVDIYSLVLAGFIIPLSAFADKWGRKKALLTGFALFGLVSLAIFFAESAEFVIAIRFLLGIAGALIMPTTLSMIRVIFENPKERATALAVWSIASSIGAVFGPIIGGALLEQFSWHSAFLINVPFAIIAVVAGLFLLPESKLSKEKSHSWDIPSTILSIAGMIGLVWSIKEFSKEGLADIIPWVVIVLAITMIVIFVKRNLSSSDPMLDVRLFKKRSFSAGTIAAFMTMFAMASVLLLASQWLQVVEELSPFKAGLYLLPMAIGDMVFAPIAPGLAARFGPKIVLPSGIGIAAIGMFIMYFFGHPLSYSTMALALILVGAGMASLAVASALIMLETPTSKAGNAAAVEESMYNLGNVFGVAVLGSLSSMLYRVFLDISSFSSKGIVGDLAHVAEESVVGAVEVAKATGIKQLANEAVTSFNDAFVATALVGGIIMIIISIVVYLLIPKSLDITKQK
# Experiments:
# QacAWT tagged with GFP = biological target: T1, QacAWT tagged with GFP (Staphylococcus aureus, UniProt P0A0J9); assay: immunostaining of cells or tissue; NHS-Rhodamine labelled ICabs (0.03 mg/ml) added to E. coli spheroplasts expressing GFP-tagged QacA, room temperature 30 min, washed, confocal microscopy; conditions: one partner purified
# T1 construct: QacA wild type, 14 transmembrane helix MFS (DHA2) antibacterial efflux antiporter of Staphylococcus aureus; codon-optimized synthetic gene in pBAD-His8; the methods of the spheroplast imaging name only QacA_(D411N)-GFP; also called QacA-GFP; source: on E. coli spheroplasts; not shown: GFP, C-terminal, kept
# five unique clones = assay: flow cytometry on cells; yeast cells displaying individual ICab clones with QacA_(D411N)-GFP; percent population shift
# [1] = biological target: ICab A4 displayed on the yeast cell surface; assay: flow cytometry on cells; yeast cells displaying the ICab incubated with different concentrations of purified QacA_(D411N)-GFP; population shift-based titration; one site-specific binding fit; apparent Kd
# [2] = biological target: ICab B7 displayed on the yeast cell surface; assay: as above
# the identified ICabs = assay: as above
Binder,binding result (QacAWT tagged with GFP),population shift (five unique clones) [%],Kd [1] [nM],Kd [2] [nM],Kd (the identified ICabs) [nM]
B1,binds,–,–,–,–
B2,binds,–,–,–,–
B3,–,65 to 97,65,100,59
